From patent US20250304693A1 (HIFIBIO, published 2025)

T1: cynomolgus BTLA on cells (cynomolgus, UniProt A0A2K5W7M7 31-289)
T1 construct: whole, on cells; Overexpressed on Expi293 cells; also called cyno BTLA; CynoBTLA
T1 sequence: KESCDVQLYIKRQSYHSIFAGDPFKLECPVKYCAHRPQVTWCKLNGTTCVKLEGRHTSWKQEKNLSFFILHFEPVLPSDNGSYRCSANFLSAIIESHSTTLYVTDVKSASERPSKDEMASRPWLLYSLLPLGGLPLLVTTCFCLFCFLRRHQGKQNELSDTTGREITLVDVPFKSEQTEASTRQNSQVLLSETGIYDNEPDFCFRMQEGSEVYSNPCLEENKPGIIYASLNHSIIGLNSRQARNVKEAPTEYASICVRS

T2: recombinant human BTLA (human, UniProt Q7Z6A9 31-157, limits assumed)
T2 construct: ELISA antigen; construct not described
T2 sequence (looked up): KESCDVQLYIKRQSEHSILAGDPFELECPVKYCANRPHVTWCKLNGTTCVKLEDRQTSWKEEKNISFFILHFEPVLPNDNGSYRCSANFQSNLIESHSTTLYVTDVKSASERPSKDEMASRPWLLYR


Columns and labels:
[1] = target: T3, human BTLA (B- and T-lymphocyte attenuator) on cells (human, UniProt Q7Z6A9 31-289); experiment: cell-based or functional assay
[2] = target: T3, human BTLA (B- and T-lymphocyte …); experiment: FACS on HEK293T.hBTLA cells, AF647 anti-human IgG Fc detection
Experimental: (§1) In FIGS. 11A and 11B, HEK293 overexpressing human BTLA (FIG. 11A) and Expi293 cells overexpressing cynomolgus BTLA (FIG. 11B) were incubated with different concentrations of selected HFB6-3 humanized variants with cysteine mutations. Anti-BTLA antibodies binding to target cells were quantified with an AF647-conjugated anti-human IgG Fc 2nd antibody by FACS. HFB6-3hz24-hG4P-C109A, HFB6-3hz25-hG4P-C109A, HFB6-3hz24-hG4P-C109S and HFB6-3hz25-hG4P-C109S bound to human BTLA and cyno BTLA with single digit nM and sub-nM EC₅₀, similar as parental HFB6-3 (FIGS. 11A and 11B and Table 13).

[3] = target: T3, human BTLA (B- and T-lymphocyte …); experiment: FACS competition on HEK293T.hBTLA cells; competitor hrHVEM-His-DL650
Experimental: In FIG. 12A, recombinant HVEM soluble protein was conjugated with DyLight 650 (DL650) fluorophore. HEK293 cells overexpressing hBTLA (HEK293.BTLA) were preincubated with increasing concentrations of selected HFB6-3 humanized variants with cysteine mutants or parental HFB6-3 at 4° C. for 30 minutes and then with DL650-conjugated HVEM for additional 30 minutes. After washing, soluble HVEM remaining associated with BTLA on HEK293.BTLA cells was measured by FACS.

cynomolgus BTLA on cells [4] = target: T1, cynomolgus BTLA on cells; experiment: FACS on Expi293.cynoBTLA cells, AF647 anti-human IgG Fc detection
Experimental: as §1

cynomolgus BTLA on cells [5] = target: T1, cynomolgus BTLA on cells; experiment: FACS, Expi293 cells overexpressing cynomolgus BTLA, AF647 anti-human IgG Fc secondary antibody
[6] = target: T3, human BTLA (B- and T-lymphocyte …); experiment: FACS, HEK293 cells overexpressing human BTLA, AF647 anti-human IgG Fc secondary antibody
cynomolgus BTLA on cells [7] = target: T1, cynomolgus BTLA on cells; experiment: FACS on Expi293 cells overexpressing cynomolgus BTLA, AF647 anti-human IgG Fc detection
Experimental: (§2) In FIGS. 2A-2B, HEK293 cells overexpressing human BTLA and Expi293 cells overexpressing cynomolgus BTLA were incubated with different concentrations of anti-BTLA parental antibodies. Anti-BTLA antibody binding to target cells was quantified with an AF647-conjugated anti-human IgG Fc 2nd antibody by FACS.

recombinant human BTLA = target: T2, recombinant human BTLA; experiment: ELISA on recombinant human BTLA
[8] = target: T3, human BTLA (B- and T-lymphocyte …); experiment: cell-based or functional assay; remark: listed apart in the source
[9] = target: T3, human BTLA (B- and T-lymphocyte …); experiment: cell-based or functional assay; remark: listed apart in the source
[10] = target: T3, human BTLA (B- and T-lymphocyte …); experiment: FACS competition on HEK293.BTLA cells; competitor DL650-conjugated soluble HVEM
Experimental: In FIG. 3A, recombinant HVEM soluble protein was conjugated with DyLight 650 (DL650) fluorophore. HEK293 cells overexpressing hBTLA (HEK293.BTLA) were preincubated with increasing concentrations of HFB6-2 and HFB6-3 at 4° C. for 30 minutes and then with DL650-conjugated HVEM for an additional 30 minutes. After washing, soluble HVEM remaining associated with BTLA on HEK293.BTLA cells was measured by FACS. HFB6-2 and HFB6-3 blocked soluble HVEM and cellular BTLA interaction with single digit nM IC₅₀.

[11] = target: T3, human BTLA (B- and T-lymphocyte …); experiment: FACS, primary human T cells, donor 149, AF647 anti-human IgG Fc secondary antibody
Experimental: (§3) In FIGS. 4A-4D, primary T cells and B cells were isolated from human PBMC with EasySep™ Human T Cell Isolation Kit and B cell isolation kit ([…] Technologies: Vancouver, Canada). Isolated T cells or B cells were incubated with different concentrations of anti-BTLA parental antibodies. Anti-BTLA antibody binding to target cells was quantified with an AF647-conjugated anti-human IgG Fc 2nd antibody by FACS.

[12] = target: T3, human BTLA (B- and T-lymphocyte …); experiment: FACS, primary human T cells, donor 1709, AF647 anti-human IgG Fc secondary antibody
Experimental: as §3

[13] = target: T3, human BTLA (B- and T-lymphocyte …); experiment: FACS on HEK293 cells overexpressing human BTLA, AF647 anti-human IgG Fc detection
Experimental: as §2

[14] = target: T3, human BTLA (B- and T-lymphocyte …); experiment: FACS, primary human B cells, donor 149, AF647 anti-human IgG Fc secondary antibody
Experimental: as §3

[15] = target: T3, human BTLA (B- and T-lymphocyte …); experiment: FACS, primary human B cells, donor 1709, AF647 anti-human IgG Fc secondary antibody
Experimental: as §3

| CHO.TCRa.hHVEM/Jurkat.hBTLA.NFAT-luc (EC50 (nM)) [1] | EC50 [2] | IC50 [3] | EC50 (cynomolgus BTLA on cells [4]) | EC50 (read off the curve) (cynomolgus BTLA on cells [5]) | EC50 (read off the curve) [6] | EC50 (cynomolgus BTLA on cells [7]) | EC50 (recombinant human BTLA) | Reporter EC50 [8] | BTLA-HVEM blockade reporter assay, EC50 [9] | IC50 [10] | EC50 [11] | EC50 [12] | EC50 [13] | EC50 [14] | EC50 [15] | Binder |
| --- | --- | --- | --- | --- | --- | --- | --- | --- | --- | --- | --- | --- | --- | --- | --- | --- |
| 14.4 nM | 4.04 nM | 3.2 nM | 8.83 nM | – | – | – | – | – | – | – | – | – | – | – | – | HFB6-3hz25-hG4P-C109S (antibody, V domains shown, Humanized variant of HFB6-3) VH: QVQLQESGPGLVKPSGTLSLTCADSGFSISDTYIHWVRQPPGKGLEWIGRIDPANGFTRYNPSLKSRVTISSDKSKNQASLKLSSVTAADTAVYYCAREDGYPYYTLDSWGQGTTVTVSS VL: DIVMTQSPDSLALSLGERATINCKSSQSLLDVDGKTYLNWFQQKPGQPPKRLIYLVSKLDSGVPDRFSGSGSGTDFTLTISSVQAEDVAVYYCWQGTHFPRTFGQGTKLEIK |
| – | – | – | – | ~0.6 nM | ~0.8 nM | – | – | – | – | – | – | – | – | – | – | 22B3 (antibody, V domains shown) VH: QVQLVQSGAEVKKPGASVKVSCKASGFSLSSYGVSWVRQAPGQGLEWMGAISYDGITYYASWAKSRVTMTRDTSTSTVYMELSSLRSEDTAVYYCARGDYYDDYVYVYALDIWGQGTLVTVSS VL: EIVLTQSPGTLSLSPGERATLSCQASQSISTALAWYQQKPGQAPRLLIYAASTLASGIPDRFSGSGSGTDFTLTISRLEPEDFAVYYCQQGYSSSNLDNVFGGGTKVEIKR |
| – | – | – | – | – | – | 0.614 nM | 2.35 nM | 11.5 nM | 10.2 nM | 5.45 nM | 1.4 nM | 2 nM | 2.34 nM | 0.8 nM | 0.28 nM | HFB6-2 (antibody, V domains shown, Mouse lead antibody; also called HFB6-2-hG4P; parental HFB6-2) VH: EVQLQQSGAELVKPGASVKLSCTASGVNIKDTYMYWVKQRPEQGLEWIGRIDPANGYTRYDPKFQDKATVTADTSSNTAHLQLSSLTSEDTAVYYCAVNDGYFEYFDVWGAGTTVTVSS VL: not shown |
| 7.9 nM | 3.21 nM | 2.69 nM | 5.7 nM | – | – | 0.823 nM | – | – | 12.5 nM | 7.71 nM | 3.7 nM | 7.3 nM | 1.45 nM | 0.44 nM | 0.28 nM | HFB6-3 (antibody, V domains shown, Mouse lead antibody; also called HFB6-3-hG4P; parental HFB6-3) VH: EVQLQQSGAELVKPGASVKLSCTDSGFNIKDTYIHWVTQRPQQGLEWIGRIDPANGFTRYDPKFQGKATITSDTSSNTAYLQLSSLTSEDTAVYYCAREDGYPYYTLDCWGQGTSVTVSS VL: not shown |
